Assay results as given in patent US20230322944A1 (published 2023).

T1: human CD122 His tagged (human, UniProt P14784 27-240)
T1 construct: also called hCD122
T1 sequence: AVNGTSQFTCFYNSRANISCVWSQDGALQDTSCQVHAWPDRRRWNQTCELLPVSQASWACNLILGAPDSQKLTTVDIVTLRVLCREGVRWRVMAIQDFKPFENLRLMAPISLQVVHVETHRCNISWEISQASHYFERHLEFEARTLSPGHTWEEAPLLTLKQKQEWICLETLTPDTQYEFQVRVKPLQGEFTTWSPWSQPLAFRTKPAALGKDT

T2: cynomolgus and/or rhesus monkey CD122 His tag (rhesus monkey, UniProt Q38J85 27-240 (cynomolgus entry))
T2 construct: also called rhesus CD122; rhCD122
T2 sequence: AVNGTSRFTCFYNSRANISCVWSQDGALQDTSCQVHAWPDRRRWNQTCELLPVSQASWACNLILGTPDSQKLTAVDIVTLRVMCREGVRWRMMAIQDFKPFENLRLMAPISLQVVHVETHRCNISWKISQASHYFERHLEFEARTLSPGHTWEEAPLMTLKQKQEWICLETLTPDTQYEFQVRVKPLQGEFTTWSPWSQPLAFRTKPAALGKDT


Tests used:
[1] = target: T1, human CD122 His tagged; assay: BIACORE SPR, Fab on human CD122
Experimental: (§1) A mouse anti-human antibody (CH1 specific) was immobilized on a CMS Sensor Chip to a level of 2000 RU in acetate buffer at pH 4.5 using amine coupling following the Wizard instructions for two channels. One channel was used for background signal correction. The standard running buffer HBS-EP pH 7.4 was used. Regeneration was performed with a single injection of 10 μl of 10 mM Glycine at pH 1.5 at 20 μl/minute. IgG samples were injected for 2 minutes at 50 nM at 30 μl/min followed by and off-rate of 60 seconds. The monomeric antigen (human CD122 His tagged or cynomolgus and/or rhesus monkey CD122 His tag) was injected in two fold serial dilutions from 100 nM down to 3.1 nM, for 2 minutes at 30 μl/min followed by an off-rate of 300 seconds. The obtained sensorgrams were analyzed using the BIACORE® 3000 evaluation (BIAevaluation) software. The KD was calculated by simultaneous fitting of the association and dissociation phases to a 1:1 Langmuir binding model.

[2] = target: T2, cynomolgus and/or rhesus monkey CD122 …; assay: BIACORE SPR, Fab on rhesus CD122
Experimental: as §1

Binder | Kd [1] [nM] | Kd [2] [nM]
FAB03 (Fab, V domains shown, F11VH-1 + F11VK-123; Human monovalent Fab) VH: not shown VL: DIQMTQSPSSLSASVGDRVTITCQASSSVSFMYWYQQRPGKAPRLLIYDTSNLASGVPSRFSGSGSGTSYTFTISSLQPEDIATYYCQQWDTYPLTFGQGTKVEIK | 38.6 | 20.6
FAB12 (Fab, V domains shown, F11VH-23 + F11VK-123; Human monovalent Fab) VH: EVQLLESGGGLVQPGGSLRLSCAASGFTVTSYAVHWVRQAPGKGLEWLGVIWSGGSTDYNAAFISRLTISKDNSKNTVYFQMNSLRAEDTAVYYCARAGDYNYDGFAYWGQGTLVTVSS VL: DIQMTQSPSSLSASVGDRVTITCQASSSVSFMYWYQQRPGKAPRLLIYDTSNLASGVPSRFSGSGSGTSYTFTISSLQPEDIATYYCQQWDTYPLTFGQGTKVEIK | 21.8 | 19.5
FAB09 (Fab, V domains shown, F11VH-13 + F11VK-123; Human monovalent Fab) VH: not shown VL: DIQMTQSPSSLSASVGDRVTITCQASSSVSFMYWYQQRPGKAPRLLIYDTSNLASGVPSRFSGSGSGTSYTFTISSLQPEDIATYYCQQWDTYPLTFGQGTKVEIK | 72.5 | 36.5
